Measurements published in patent US7294472B2, “Method for identifying modulators of G protein coupled receptor signaling” (Caden Biosciences, priority 2001, dated 2007).
Where no end group is shown, it is not given here.

Legend:
β2 adrenergic receptor = β2 adrenergic receptor (Homo sapiens, UniProt P07550); assay: ELISA binding of peptides panned from the Gs library to β2 adrenergic receptor; conditions: recombinant reconstituted β2 adrenergic receptor; peptides selected from Gs library
Description: The methods of Example 7 were repeated using recombinant reconstituted β2 adrenergic receptor panned with the Gs Library.

[1] = target: T1, light-activated rhodopsin (Bos taurus, UniProt P02699); assay: ELISA binding of MBP-peptide fusion proteins to light-activated rhodopsin; design: species or system bovine; conditions: for EC50 / ELISA OD450: MBP-high affinity peptide fusion proteins; for EC50: read-out: MII binding EC50; for ELISA OD450: absorbance at OD450 in a panning ELISA
T1 construct: Bovine rod outer segments (rhodopsin-containing membranes) were prepared from fresh retinas; from tissue; host or cells: bovine retina, rod outer segment membranes (EDTA- and urea-washed)
Description: The entire population of peptide-coding sequences identified in round 4 of panning (see Example 7) was transferred from pJS142 to pELM3 (New England Biolabs). This plasmid is a pMal-c2 derivative with a modified polylinker, inducible by isopropyl β-thiogalacto-pyranoside and containing the E. coli malE gene with a deleted leader sequence and leads to cytoplasmic expression of MBP fusion proteins. The MBP-carboxyl terminal peptide analog fusion proteins were expressed in E. coli.
For the assay, in the dark, 1 μg/well of ROS membranes (rhodopsin) as described in Example 5 was directly immobilized on microtiter wells in cold HEK/DTT for one hour at 4° C. The wells were rinsed, blocked with 1% BSA in HEK/DTT for one hour at 4° C. and rinsed again. Bound rhodopsin was activated by exposure to light for 5 minutes on ice before addition of the MBP fusion proteins (crude bacterial lysates were diluted 1:50 in HEK with 1 μM dithiothreitol; purified proteins were used at 0.2-120 nM). The MBP-Gαt340-350K341R (pELM17) fusion protein and MBP with linker sequence only (pELM6) were present in control wells at 50 nM final concentration. After 30 minutes, wells were washed and rabbit anti-MBP antibody (New England Biolabs) was added. The anti-MBP antibody was used at a 1:1000 dilution for crude lysates and a 1:3000 dilution for purified proteins. After 30 minutes, wells were rewashed and goat anti-rabbit antibody conjugated to horseradish peroxidase (1:7500 dilution for crude lysates; 1:10,000 dilution for purified proteins; Kierkagaard & Perry Laboratories) was added. After 30 minutes, the plate was washed four times with PBS containing 0.05% Tween™20. Horseradish peroxidase substrate (100 μl) was added and color was allowed to develop for about 20 minutes. The reaction was stopped by addition of 100 μl 2N sulfuric acid. Values indicate absorbance at OD450. The positive control for the assay was pELM 17, which encodes the MBP fusion protein Gαt340-350K341R. pELM6, which expresses MBP protein fused to a linker sequence only, served as the negative control. “No lysate” control wells were included to reflect any intrinsic, non-specific binding within the assay. […]

rhodopsin [2] = target: T2, rhodopsin (Bos taurus, UniProt P02699); assay: "extra MII" assay: stabilization of metarhodopsin II; assay type: biochemical, bovine; conditions: for EC50: MBP-high affinity peptide fusion proteins
T2 construct: Bovine rod outer segments (rhodopsin-containing membranes) were prepared from fresh retinas; from tissue; host or cells: bovine retina, rod outer segment membranes (EDTA- and urea-washed)
Description: Rhodopsin can be measured spectrophotometrically in many of its conformational states. The high affinity, biologically active rhodopsin state can be easily differentiated from its precursor, MI, by the “extra” MII assay. See Example 35. This assay relies on the observation that under conditions of high pH and low temperature, MII is stabilized in the presence of Gt and can be spectrophotometrically measured. The ability of the C-terminal peptide to stabilize Meta II in the same manner as the heterotrimeric Gt, provides the tools to investigate the structural basis of the interaction of G proteins with the agonist binding sites of activated receptors.
For the “extra MII” assay, EDTA-washed rhodopsin (Example 5; 5 μM) is incubated in a 50 mM HEPES buffer, pH 8.2, with 100 mM NaCl, 1 mM MgCl2, and 1 mM DTT at 5.3° C., in the absence or presence of varying concentrations of Gt340-350 analogs or Gt. The sample is maintained at 5.4° C. using a water-jacketed and thermostated circulator cuvette holder in an SLM Aminco DW2000 spectrophotometer at 390 and 440 nm. A flash of light bleaching 10% of the rhodopsin is presented and after a 1 min incubation, a second spectrum is measured and the difference in spectrum calculated. “Extra” MII is calculated as the difference between the absorbance at 390 and 440. Dose response curves of MII stabilization by αt340350 (λ), mutant α340-350K341L(ν), and heterotrimeric Gt (v) were analyzed by non-linear regression using the program GraphPad PRISM and are shown in FIG. 23.
EDTA-washed rhodopsin (5 μM) was incubated in a 50 mM HEPES buffer, pH 8.2, with 100 mM NaCl, 1 mM MgCl2, and 1 mM DTT at 5.3° C., and “extra” MII was measured. For compounds that enhanced MBP-8 binding over 25% using the color coded readout, dose studies were performed to generate EC50 curves. Table XXII below provides the calculated EC50 for metarhodopsin II stabilization of each compound.

rhodopsin [3] = target: T2, rhodopsin; assay: ELISA binding of lysates of peptides panned from the Gt library to rhodopsin; design: species or system bovine; conditions: OD450 for wells with receptor minus OD450 for wells with no receptor
Method: The panning process is illustrated in FIG. 1. For screening of the library by “panning,” rhodopsin receptors prepared according to Example 5 were immobilized directly on Immulon 4 (Dynatech) microtiter wells (0.1-1 μg of protein per well) in cold 35 mM HEPES, pH 7.5, containing 0.1 mM EDTA, 50 mM KCl and 1 mM dithiothreitol (HEK/DTT). After shaking for one hour at 4° C., unbound membrane fragments were washed away with HEK/DTT. The wells were blocked with 100 μl 2% BSA in HEKL (35 mM HEPES; 0.1 mM EDTA; 50 mM KCl; 0.2 M α-lactose; pH 7.5, with 1 mM DTT). For rounds 1 and 2, BSA was used for blocking; in later rounds 1% nonfat dry milk was used. For the first round of panning, about 24 wells of a 96-well plate were used. In subsequent rounds, 8 wells with receptor and 8 wells without receptor were prepared.
The Gt library was thawed (2 mL aliquot) and mixed with 6 mL lysis buffer on ice. Lysis buffer contains 4.25 mL HE (25 mM HEPES: 0.1 mM EDTA; pH 7.5); 1 mL 50% glycerol; 750 μL 10 mg/mL protease-free BSA in HE; 10 μL 0.5 M DTT; and 6.25 μL 0.2 M PMSF. Freshly prepared lysozyme solution (150 μL 10 mg/mL lysozyme in cold HE) was added and the tube was gently inverted several times and incubated on ice for no more than two minutes. The extent of lysis is evidenced by an increase in viscosity that can be observed by noting the slow migration of bubbles to the top of the tube after mixing. Lysis was terminated by mixing in 2 mL 20% lactose and 250 μL 2M KCl. The tube was centrifuged immediately at 13,000×g for 15 minutes at 4° C. and the supernatant transferred to a new tube. A small aliquot of 0.1% (the PRE sample) was saved in a separate, labeled tube. […] Immediately thereafter, the crude bacterial lysate from the peptide library (200 μL) was added to each well and allowed to shake gently for one hour at 4° C. For round 2, this same procedure was followed. In round 3, the amount of lysate used was reduced to 100 μL. In subsequent rounds, the lysate was diluted 1:10 in HEKL/BSA. In all rounds, 5-10 μL 200 μM native peptide was added to the wells to chase off peptides that were bound with lower affinity.
The methods of Example 7 repeated using rhodopsin screening with a Gt library. To identify the rank order of binding, the lysates were analyzed using ELISA methods in which the secondary antibody was conjugated to HRP. Following addition of the substrate, the microplate was read using a spectrophotometer. The binding is the OD450 for wells with receptor—OD450 for wells in which no receptor (control wells with empty lipid vesicles).

PAR1 = target: T3, PAR1 (Homo sapiens, UniProt P25116); assay: ELISA binding of purified MBP clones to SF9 membranes expressing PAR1 or muscarinic M1 receptor; design: expressed in transfected cells; host or cells: membranes of Sf9 insect cells infected with ThR/pBluebac recombinant virus; conditions: purified MBP clones, SF9 membranes
T3 sequence (P25116 22-425): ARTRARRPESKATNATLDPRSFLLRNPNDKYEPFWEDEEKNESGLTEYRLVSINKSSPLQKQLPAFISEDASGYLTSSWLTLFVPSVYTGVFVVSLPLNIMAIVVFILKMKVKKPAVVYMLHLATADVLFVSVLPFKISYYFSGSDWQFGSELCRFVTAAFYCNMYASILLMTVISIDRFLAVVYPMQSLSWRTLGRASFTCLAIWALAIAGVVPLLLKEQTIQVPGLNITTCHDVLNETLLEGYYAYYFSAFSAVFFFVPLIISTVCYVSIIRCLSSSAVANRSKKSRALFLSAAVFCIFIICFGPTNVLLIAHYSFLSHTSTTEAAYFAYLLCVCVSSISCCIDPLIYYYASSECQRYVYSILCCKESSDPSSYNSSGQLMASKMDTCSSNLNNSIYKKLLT
Method: To identify high affinity peptides that bind PAR1, membranes prepared from mammalian cells (Chinese hamster ovary) overexpressing PAR1 were panned with the G11 peptide library. ELISA binding affinity results of selected clones are shown in FIG. 9 for their binding to membranes prepared from SF9 cells expressing either PAR1 or the Gq-coupled muscarinic M1 receptor. To quantitate the binding, purified MBP clones were analyzed using ELISA methods in which the secondary antibody was conjugated to HRP. The binding for the control MBP-Gq fusion protein is shown. The data are the average of two separate experiments done in duplicate.

T2 sequence (P02699 whole entry, the tested form may be a part): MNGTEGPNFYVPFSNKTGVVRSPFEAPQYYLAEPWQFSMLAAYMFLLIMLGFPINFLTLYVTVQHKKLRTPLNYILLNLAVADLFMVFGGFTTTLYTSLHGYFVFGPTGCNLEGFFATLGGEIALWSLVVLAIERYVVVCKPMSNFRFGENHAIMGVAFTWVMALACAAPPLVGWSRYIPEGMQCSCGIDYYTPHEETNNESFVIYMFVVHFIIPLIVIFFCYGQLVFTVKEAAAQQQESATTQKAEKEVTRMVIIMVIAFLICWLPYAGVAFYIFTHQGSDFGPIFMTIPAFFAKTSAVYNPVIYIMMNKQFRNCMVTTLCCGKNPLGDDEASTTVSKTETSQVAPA
T1 sequence (P02699 whole entry, the tested form may be a part): as above

Sequence	ELISA (β2 adrenergic receptor)	ELISA (rhodopsin [3])	also measured
QRLHLRGYEFL [AG13]	.054	–	–
LLENLRDCGMF [Peptide 8]	–	–	EC50 [1]: 7.8 nM; ELISA OD450 [1]: .54; EC50 (rhodopsin [2]): 940 nM
QRLRLGPDELF [AG4]	.291	–	–
MLDNLKDCGLF [Clone L7]	–	.525	–
QRIHRRPFKFF [BAR1]	.218	–	–
ICENLKDCGLF [MBP-10]	–	–	EC50 [1]: 42 nM; ELISA OD450 [1]: .36; EC50 (rhodopsin [2]): 5400 nM
QWMDLRQHELL [BAR3]	.185	–	–
MLKNLKDCGMF [MBP-24]	–	–	binding affinity to light-activated rhodopsin (in words) [1]: even higher binding affinities than did MBP-8; EC50 [1]: 6.6 nM; ELISA OD450 [1]: .61; EC50 (rhodopsin [2]): 490 nM
ERLHRRLFQLH [BAR8]	.047	–	–
QRLNVGEYNLV (also: fused to MBP) [PAR-34, MBP clone, linker LPQM]	–	–	binding affinity for PAR1 (in words) (PAR1): high affinity binding
QRLRLRKYRLF [BAR31]	.026	–	–
ICENLKDCGLF [Clone L6]	–	.342	–
MLDNLKACGLF [Clone L4]	–	.908	–
PRPRLLRFKIP [AG19]	.361	–	–
ILQNLKDCGLF [Clone L17]	–	.600	–
MLENLKDCGLF [MBP-18]	–	–	binding affinity to light-activated rhodopsin (in words) [1]: even higher binding affinities than did MBP-8; EC50 [1]: 3.8 nM; ELISA OD450 [1]: .58; EC50 (rhodopsin [2]): 1240 nM
QRMPLRLFEFL [AG3]	.217	–	–
ILENLKDCGLF [Clone L3]	–	.839	–
DRMHLWRFGLL [AG11]	.192	–	–
PCIQLGQYESF [BAR40]	.028	–	–

Sequence	ELISA (β2 adrenergic receptor)	ELISA (rhodopsin [3])	also measured
IVKNLEDCGLF [Clone L8]	–	.257	–
QRMPLRQYELL [AG9]	.190	–	–
LLDILKDCGLF [Clone L38]	–	.823	–
VLEDLKSCGLF [MBP-23]	–	–	EC50 [1]: 20 nM; ELISA OD450 [1]: .66; EC50 (rhodopsin [2]): 3500 nM
QRMNLGPCGLL [AG18]	.155	–	–
LRENLKDCGLL [Clone L14]	–	.833	–
RWLHWQYRGRG [AG20]	.431	–	–
IKENLKDCGLF [Gt, reference compound]	–	–	EC50 [1]: 6000 nM; ELISA OD450 [1]: .01; EC50 (rhodopsin [2]): > 100000 nM
HRRHIGEFALL [BAR11]	.048	–	–
VRDILKDCGLF [Clone L15]	–	.621	–
IRGSLKDCGLF [Clone L20]	–	.423	–
ILESLNECGLF [Clone L34]	–	.603	–
QGEHLRQLQLQ [AG2]	.330	–	–
QGMQLRRFKLR [AG1]	.435	–	–
LLENLRDCGMI [MBP-8]	–	–	binding affinity to light-activated rhodopsin (in words) [1]: high affinity; stabilization of MII (in words) (rhodopsin [2]): stabilized MII
LQQVLKDCGLL [MBP-9]	–	–	EC50 [1]: 10 nM; ELISA OD450 [1]: .35; EC50 (rhodopsin [2]): 1050 nM
NCMKFRSCGLF [BAR20]	.079	–	–
ISKNLRDCGLL [Clone L13]	–	.187	–
QRVHLRQDELL [BAR2]	.197	–	–
